Data published in article PMC11189300 (2024).

T1: KNL1 (construct of the BLI titrations with ZWINT) (human, UniProt Q8NG31)
T1 chain: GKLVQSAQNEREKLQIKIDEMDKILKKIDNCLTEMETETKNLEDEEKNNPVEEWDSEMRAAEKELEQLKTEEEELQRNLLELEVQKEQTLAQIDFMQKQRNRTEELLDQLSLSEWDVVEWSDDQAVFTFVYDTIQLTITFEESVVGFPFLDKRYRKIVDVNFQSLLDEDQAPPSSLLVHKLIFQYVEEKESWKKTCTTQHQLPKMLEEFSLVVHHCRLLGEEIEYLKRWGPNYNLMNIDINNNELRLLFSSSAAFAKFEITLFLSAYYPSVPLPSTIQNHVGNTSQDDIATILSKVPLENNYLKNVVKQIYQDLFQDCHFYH

T2: Mis12C with KNL1_(2,026–2,342) bound (human, UniProt Q9H081 1-205; Q6P1K2 1-205; Q96IY1 1-281; Q9H410 1-356; Q8NG31 2026-2342)
T2 chain 1: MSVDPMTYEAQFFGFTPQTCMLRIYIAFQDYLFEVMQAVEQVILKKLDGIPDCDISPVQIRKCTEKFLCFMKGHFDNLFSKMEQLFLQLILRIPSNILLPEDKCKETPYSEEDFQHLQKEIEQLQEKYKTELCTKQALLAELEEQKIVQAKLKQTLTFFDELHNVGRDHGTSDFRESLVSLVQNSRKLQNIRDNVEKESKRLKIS
T2 chain 2: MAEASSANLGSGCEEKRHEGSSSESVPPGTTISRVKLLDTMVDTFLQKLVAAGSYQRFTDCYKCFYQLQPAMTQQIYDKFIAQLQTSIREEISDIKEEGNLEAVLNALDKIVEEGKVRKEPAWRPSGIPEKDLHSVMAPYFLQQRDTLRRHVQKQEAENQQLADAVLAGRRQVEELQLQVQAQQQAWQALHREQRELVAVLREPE
T2 chain 3: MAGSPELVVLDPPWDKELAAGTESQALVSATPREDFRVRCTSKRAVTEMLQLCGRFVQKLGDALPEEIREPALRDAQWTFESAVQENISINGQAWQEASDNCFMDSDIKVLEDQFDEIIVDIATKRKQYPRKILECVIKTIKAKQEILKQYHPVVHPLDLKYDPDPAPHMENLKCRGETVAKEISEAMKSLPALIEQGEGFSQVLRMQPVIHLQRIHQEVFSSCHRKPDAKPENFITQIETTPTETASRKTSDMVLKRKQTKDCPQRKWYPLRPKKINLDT
T2 chain 4: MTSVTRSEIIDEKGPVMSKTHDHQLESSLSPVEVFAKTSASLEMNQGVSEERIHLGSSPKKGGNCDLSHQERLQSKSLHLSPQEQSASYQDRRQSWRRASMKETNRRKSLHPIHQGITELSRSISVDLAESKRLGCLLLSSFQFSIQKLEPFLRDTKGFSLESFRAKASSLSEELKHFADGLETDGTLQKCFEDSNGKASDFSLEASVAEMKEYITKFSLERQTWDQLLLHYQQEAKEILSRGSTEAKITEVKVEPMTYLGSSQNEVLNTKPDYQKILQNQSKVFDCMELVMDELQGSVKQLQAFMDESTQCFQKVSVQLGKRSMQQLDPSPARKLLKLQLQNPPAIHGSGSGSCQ
T2 chain 5: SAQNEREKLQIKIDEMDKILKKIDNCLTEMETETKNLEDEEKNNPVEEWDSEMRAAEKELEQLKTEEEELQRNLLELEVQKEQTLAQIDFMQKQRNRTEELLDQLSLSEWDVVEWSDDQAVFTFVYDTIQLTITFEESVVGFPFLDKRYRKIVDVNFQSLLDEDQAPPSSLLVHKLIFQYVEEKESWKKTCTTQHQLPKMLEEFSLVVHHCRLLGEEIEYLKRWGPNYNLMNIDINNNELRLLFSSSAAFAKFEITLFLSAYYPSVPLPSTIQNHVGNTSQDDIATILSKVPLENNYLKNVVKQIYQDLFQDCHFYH

B1: ZWINT (natural protein)
chain: MEAAETEAEAAALEVLAEVAGILEPVGLQEEAELPAKILVEFVVDSQKKDKLLCSQLQVADFLQNILAQEDTAKGLDPLASEDTSRQKAIAAKEQWKELKATYREHVEAIKIGLTKALTQMEEAQRKRTQLREAFEQLQAKKQMAMEKRRAVQNQWQLQQEKHLQHLAEVSAEVRERKTGTQQELDRVFQKLGNLKQQAEQERDKLQRYQTFLQLLYTLQGKLLFPEAEAEAENLPDDKPQQPTRPQEQSTGDTMGRDPGVSFKAVGLQPAGDVNLP
B2: Ndc80 complex (Ndc80C): NDC80^HEC1, NUF2, SPC24, SPC25 (complex)
chain 1: MKRSSVSSGGAGRLSMQELRSQDVNKQGLYTPQTKEKPTFGKLSINKPTSERKVSLFGKRTSGHGSRNSQLGIFSSSEKIKDPRPLNDKAFIQQCIRQLCEFLTENGYAHNVSMKSLQAPSVKDFLKIFTFLYGFLCPSYELPDTKFEEEVPRIFKDLGYPFALSKSSMYTVGAPHTWPHIVAALVWLIDCIKIHTAMKESSPLFDDGQPWGEETEDGIMHNKLFLDYTIKCYESFMSGADSFDEMNAELQSKLKDLFNVDAFKLESLEAKNRALNEQIARLEQEREKEPNRLESLRKLKASLQGDVQKYQAYMSNLESHSAILDQKLNGLNEEIARVELECETIKQENTRLQNIIDNQKYSVADIERINHERNELQQTINKLTKDLEAEQQKLWNEELKYARGKEAIETQLAEYHKLARKLKLIPKGAENSKGYDFEIKFNPEAGANCLVKYRAQVYVPLKELLNETEEEINKALNKKMGLEDTLEQLNAMITESKRSVRTLKEEVQKLDDLYQQKIKEAEEEDEKCASELESLEKHKHLLESTVNQGLSEAMNELDAVQREYQLVVQTTTEERRKVGNNLQRLLEMVATHVGSVEKHLEEQIAKVDREYEECMSEDLSENIKEIRDKYEKKATLIKSSEE
chain 2: METLSFPRYNVAEIVIHIRNKILTGADGKNLTKNDLYPNPKPEVLHMIYMRALQIVYGIRLEHFYMMPVNSEVMYPHLMEGFLPFSNLVTHLDSFLPICRVNDFETADILCPKAKRTSRFLSGIINFIHFREACRETYMEFLWQYKSSADKMQQLNAAHQEALMKLERLDSVPVEEQEEFKQLSDGIQELQQSLNQDFHQKTIVLQEGNSQKKSNISEKTKRLNELKLSVVSLKEIQESLKTKIVDSPEKLKNYKEKMKDTVQKLKNARQEVVEKYEIYGDSVDCLPSCQLEVQLYQKKIQDLSDNREKLASILKESLNLEDQIESDESELKKLKTEENSFKRLMIVKKEKLATAQFKINKKHEDVKQYKRTVIEDCNKVQEKRGAVYERVTTINQEIQKIKLGIQQLKDAAEREKLKSQEIFLNLKTALEKYHDGIEKAAEDSYAKIDEKTAELKRKMFKMST
chain 3: MAAFRDIEEVSQGLLSLLGANRAEAQQRRLLGRHEQVVERLLETQDGAEKQLREILTMEKEVAQSLLNAKEQVHQGGVELQQLEAGLQEAGEEDTRLKASLLQLTRELEELKEIEADLERQEKEVDEDTTVTIPSAVYVAQLYHQVSKIEWDYECEPGMVKGIHHGPSVAQPIHLDSTQLSRKFISDYLWSLVDTEW
chain 4: MVEDELALFDKSINEFWNKFKSTDTSCQMAGLRDTYKDSIKAFAEKLSVKLKEEERMVEMFLEYQNQISRQNKLIQEKKDNLLKLIAEVKGKKQELEVLTANIQDLKEEYSRKKETISTANKANAERLKRLQKSADLYKDRLGLEIRKIYGEKLQFIFTNIDPKNPESPFMFSLHLNEARDYEVSDSAPHLEGLAEFQENVRKTNNFSAFLANVRKAFTATVYN
B3: Mis12 complex (Mis12C), full length: MIS12, PMF1, NSL1, DSN1 (complex)
chain 1: T2 chain 1
chain 2: T2 chain 2
chain 3: T2 chain 3
chain 4: T2 chain 4
B4: KNL1 residues 2,026–2,342 (domain or fragment)
chain: T2 chain 5

How the values were obtained:
[1] = target: T1, KNL1 (construct of the BLI titrations …); assay: BLI; Kd1
[2] = target: T1, KNL1 (construct of the BLI titrations …); assay: BLI; Kd2 (second site)
[3] = target: T2, Mis12C with KNL1_(2,026–2,342) bound; assay: BLI
[4] = target: T2, Mis12C with KNL1_(2,026–2,342) bound; assay: BLI
[5] = target: B3; assay: BLI
KNL1^M2 = KNL1^M2 (human, UniProt Q8NG31); assay: ITC
KNL1^M1 = KNL1^M1 (human, UniProt Q8NG31); assay: ITC
SPC24^Y138A/SPC25 = SPC24^Y138A/SPC25 (human, UniProt Q8NBT2 1-197; Q9HBM1 1-224, Y138A); assay: ITC
SPC24/SPC25^L154A-L176A = SPC24/SPC25^L154A-L176A (human, UniProt Q8NBT2 1-197; Q9HBM1 1-224, L154A | L176A); assay: ITC
Mis12C^M2 = Mis12C^M2 (human, UniProt Q9H081 1-205; Q6P1K2 1-205; Q96IY1 1-281; Q9H410 1-356); assay: ITC
Mis12C^M1 = Mis12C^M1 (human, UniProt Q9H081 1-205; Q6P1K2 1-205; Q96IY1 1-281; Q9H410 1-356); assay: ITC

Binder: B1
Kd [1]: 81.8 nM
Kd [2]: 65.3 nM

Binder: B2
Kd [3]: 1.15 nM
koff [4]: 0.00024 s⁻¹
koff [5]: 0.000582 s⁻¹

Binder: B3
Kd (KNL1^M2): 109 nM
Kd (KNL1^M1): 140 nM
Kd (SPC24^Y138A/SPC25): 295 nM
Kd (SPC24/SPC25^L154A-L176A): 1270 nM

Binder: B4
Kd (Mis12C^M2): 24.8 nM
Kd (Mis12C^M1): 45.2 nM
koff [5]: 0.000451 s⁻¹
